The values below come from patent publication US20090081707A1 (published 2009).

For orientation: IC50 means the point on the concentration scale where inhibition reaches its midpoint. Lower therefore signals greater potency. As a reminder, the Kd is the free concentration of one partner at which half of the binding sites on the other are occupied at equilibrium, for simple one-to-one binding. A higher Kd goes with lower affinity.

Experiment [1] has as its target trkC variant s5a immunoadhesin (trkC Val297 to Thr420 replaced with trkA Ser277 to Val402) (human). Kind of experiment: competitive displacement of labelled NGF on immunoadhesin.
Experiment [2] shares this target. Kind of experiment: saturation binding with 125I-NGF on immunoadhesin.
Experiment [3] has as its target T1, trkC-IgG immunoadhesin (chimera of human trkC extracellular domain with human IgG-1 Fc) (human, UniProt Q16288 32-413).
T1 construct: also called trkC wild-type; trkC full length receptor (as immunoadhesin); not shown: human IgG-1 heavy chain constant region from aspartic acid 216 of the hinge to residue 441 (Kabat numbering, 114 = first)
Kind of experiment: competitive displacement of labelled BDNF on immunoadhesin.

Experiment [4] deals with T2, trkB-IgG immunoadhesin (chimera of human trkB extracellular domain with human IgG-1 Fc) (human, UniProt Q16620 32-422).
T2 construct: also called trkB full length receptor (as immunoadhesin); not shown: human IgG-1 heavy chain constant region from aspartic acid 216 of the hinge to residue 441 (Kabat numbering, 114 = first)
T2 sequence (Q16620 32-422 limits assumed, change not shown): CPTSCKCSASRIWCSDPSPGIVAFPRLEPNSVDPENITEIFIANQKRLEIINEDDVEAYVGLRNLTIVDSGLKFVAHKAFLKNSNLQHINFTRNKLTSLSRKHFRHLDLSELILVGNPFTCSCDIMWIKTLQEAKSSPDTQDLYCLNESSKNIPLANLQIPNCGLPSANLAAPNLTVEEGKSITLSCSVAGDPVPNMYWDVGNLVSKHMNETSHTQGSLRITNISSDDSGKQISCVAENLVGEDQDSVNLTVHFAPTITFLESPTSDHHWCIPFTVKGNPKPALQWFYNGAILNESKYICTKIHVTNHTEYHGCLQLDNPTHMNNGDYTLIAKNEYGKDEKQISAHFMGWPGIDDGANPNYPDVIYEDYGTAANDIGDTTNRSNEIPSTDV
Kind of experiment: competitive displacement of labelled BDNF from trkB-IgG by unlabelled BDNF.

Experiment [5] has as its target T3, trkA-IgG immunoadhesin (chimera of human trkA extracellular domain with human IgG-1 Fc) (human, UniProt P04629 33-408).
T3 construct: also called trkA-IgG chimera; native trkA; not shown: human IgG-1 heavy chain constant region from aspartic acid 216 of the hinge to residue 441 (Kabat numbering, 114 = first)
The experiment can be described thus: competitive displacement of iodinated neurotrophin from trk-IgG.

The target of experiment [6] is T2, trkB-IgG immunoadhesin (chimera of …). The experiment can be described thus: competitive displacement of labelled BDNF from trkB-IgG by unlabelled NT4/5.
The target is the same in experiment [7]. The experiment can be described thus: competitive displacement of labelled BDNF from trkB-IgG by unlabelled NT3.

trkC variant s5a immunoadhesin (trkC Val297 to Thr420 replaced with trkA Ser277 to Val402) (human), sequence (chain, as listed by the source mutant): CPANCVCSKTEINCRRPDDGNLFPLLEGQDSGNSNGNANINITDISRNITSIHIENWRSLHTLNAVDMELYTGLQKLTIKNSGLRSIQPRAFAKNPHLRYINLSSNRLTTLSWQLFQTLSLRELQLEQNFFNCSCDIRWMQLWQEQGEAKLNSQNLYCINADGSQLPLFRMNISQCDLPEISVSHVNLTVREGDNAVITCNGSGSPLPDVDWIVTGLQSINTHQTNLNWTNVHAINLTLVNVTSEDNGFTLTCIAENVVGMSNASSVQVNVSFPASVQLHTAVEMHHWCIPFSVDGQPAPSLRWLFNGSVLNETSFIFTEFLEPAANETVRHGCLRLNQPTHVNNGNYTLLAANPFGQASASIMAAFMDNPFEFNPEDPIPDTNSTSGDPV
T3 sequence (P04629 other isoform, or with tags, fused parts or gaps mutant limits assumed): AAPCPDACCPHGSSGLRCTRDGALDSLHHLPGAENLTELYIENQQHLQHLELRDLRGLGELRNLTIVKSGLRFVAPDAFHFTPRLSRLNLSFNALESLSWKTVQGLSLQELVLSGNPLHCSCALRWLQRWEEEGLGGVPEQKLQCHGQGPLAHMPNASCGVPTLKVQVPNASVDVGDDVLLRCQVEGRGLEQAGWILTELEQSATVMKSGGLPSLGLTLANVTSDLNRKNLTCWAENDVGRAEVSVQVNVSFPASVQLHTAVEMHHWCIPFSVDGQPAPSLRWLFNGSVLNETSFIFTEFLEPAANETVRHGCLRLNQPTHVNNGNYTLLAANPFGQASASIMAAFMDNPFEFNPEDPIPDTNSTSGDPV

The molecule “nerve growth factor (NGF) (from UniProt P01138 122-241) (ligand)” yielded an IC50 in experiment [1] of 39.3 pM. In experiment [2], the Kd was 38.6 pM.

B1: brain-derived neurotrophic factor (BDNF) (ligand)
chain: HSDPARRGELSVCDSISEWVTAADKKTAVDMSGGTVTVLEKVPVSKGQLKQYFYETKCNPMGYTKEGCRGIDKRHWNSQCRTTQSYVRALTMDSKKRIGWRFIRIDTSCVCTLTIKRGR
notes: also called NT-2
For the molecule B1, the binding result in experiment [3] was “no binding”. The molecule further came in with an IC50 in experiment [4] of 81 pM.

B2: neurotrophin-4/5 (NT-4/5) (ligand)
chain: GVSETAPASRRGELAVCDAVSGWVTDRRTAVDLRGREVEVLGEVPAAGGSPLRQYFFETRCKADNAEEGGPGAGGGGCRGVDRRHWVSECKAKQSYVRALTADAQGRVGWRWIRIDTACVCTLLSRTGRA
notes: also called NT5
In the case of B2, the binding result in experiment [5] is “binds”. Besides, in experiment [6], the half-inhibitory concentration (IC50) was determined as 200 pM.

B3: neurotrophin-3 (NT-3) (ligand)
chain: YAEHKSHRGEYSVCDSESLWVTDKSSAIDIRGHQVTVLGEIKTGNSPVKQYFYETRCKEARPVKNGCRGIDDKHWNSQCKTSQTYVRALTSENNKLVGWRWIRIDTSCVCALSRKIGRT
In experiment [7], B3 had a concentration for half-maximal inhibition (IC50) of 18000 pM.
